Data on 3 molecules can be found in US20250051465A1 (published 2025).

Sequences and labels used below:
T1: human LEPR extracellular domain expressed with a C-terminal mouse IgG2a Fc tag (hLEPR.mFc) (human)
T1 construct: also called dimeric human LEPR
T1 chain: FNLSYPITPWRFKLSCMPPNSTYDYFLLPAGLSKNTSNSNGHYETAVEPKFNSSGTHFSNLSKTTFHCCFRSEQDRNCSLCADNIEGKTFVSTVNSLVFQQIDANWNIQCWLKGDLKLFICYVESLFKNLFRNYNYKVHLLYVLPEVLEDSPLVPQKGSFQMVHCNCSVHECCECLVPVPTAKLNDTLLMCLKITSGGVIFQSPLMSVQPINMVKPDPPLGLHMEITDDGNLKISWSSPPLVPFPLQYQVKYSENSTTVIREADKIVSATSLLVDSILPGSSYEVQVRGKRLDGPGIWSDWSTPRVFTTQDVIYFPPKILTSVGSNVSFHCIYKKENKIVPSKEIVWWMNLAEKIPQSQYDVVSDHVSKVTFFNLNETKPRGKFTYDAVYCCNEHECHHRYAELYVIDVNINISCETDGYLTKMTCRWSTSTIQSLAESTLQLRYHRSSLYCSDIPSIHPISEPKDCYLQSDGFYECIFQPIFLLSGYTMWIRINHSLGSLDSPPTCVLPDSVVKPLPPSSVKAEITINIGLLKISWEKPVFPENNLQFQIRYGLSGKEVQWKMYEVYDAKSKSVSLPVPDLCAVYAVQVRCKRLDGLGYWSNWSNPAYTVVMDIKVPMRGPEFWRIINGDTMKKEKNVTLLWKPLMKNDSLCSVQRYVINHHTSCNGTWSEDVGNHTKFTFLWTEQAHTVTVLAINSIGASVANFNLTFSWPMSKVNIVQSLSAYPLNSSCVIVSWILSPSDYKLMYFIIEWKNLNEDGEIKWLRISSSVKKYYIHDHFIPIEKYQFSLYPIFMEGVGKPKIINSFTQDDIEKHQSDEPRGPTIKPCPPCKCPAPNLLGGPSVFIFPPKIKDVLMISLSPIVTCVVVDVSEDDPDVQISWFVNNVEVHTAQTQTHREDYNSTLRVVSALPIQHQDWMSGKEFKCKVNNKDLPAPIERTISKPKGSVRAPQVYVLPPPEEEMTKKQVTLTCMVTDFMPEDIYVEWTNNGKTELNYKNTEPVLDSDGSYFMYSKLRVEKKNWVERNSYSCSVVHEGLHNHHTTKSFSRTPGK

B1: H4H17321P2 (antibody, human IgG4, V domains shown)
VH: QVQLVESGGGVVQPGRSLRLSCEASGFSSSDNAMYWVRQAPGKGLEWVSVIYHDGSYKYYEDSVKGRFTIARDNSKNTLYLQMNSLRAEDTAVYYCARYNWNHWYFDVWGRGTLVTVSS
VL: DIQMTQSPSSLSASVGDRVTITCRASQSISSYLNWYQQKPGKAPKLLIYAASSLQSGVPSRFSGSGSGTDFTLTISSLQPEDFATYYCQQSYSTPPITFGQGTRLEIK
notes: Fully human antibody with human IgG4 Fc (H4H prefix)
B2: H4H17319P2 (antibody, human IgG4, V domains shown)
VH: QVQLVESGGSVVQPGRSLRLSCAASGFTFSTYAMYWVRQTPGKGLEWVAVLYSDGSNKYYIDSVKGRFTISRDTSTNTLYLQMSSLRADDSALYYCARLNWDYWYFDLWGRGTLVTVSS
VL: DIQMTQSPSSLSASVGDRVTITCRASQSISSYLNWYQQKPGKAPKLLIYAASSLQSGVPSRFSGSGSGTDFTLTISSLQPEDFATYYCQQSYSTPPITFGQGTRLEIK
notes: as for B1
B3: H4H18446P2 (antibody, human IgG4, V domains shown)
VH: EVQLVESGGGLVQPGGSLRLSCAASGFTFSNYGMTWVRQAPGKGLEWVSAITGGGGSTYYSNSVKGRFTISRDNSKNTVYLRMNSVRAEDTAVYYCAKYKWNFVDDWGQGTTVTVSS
VL: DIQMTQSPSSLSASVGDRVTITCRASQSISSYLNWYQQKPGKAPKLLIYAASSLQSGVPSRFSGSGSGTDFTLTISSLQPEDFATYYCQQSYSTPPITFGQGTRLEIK
notes: as for B1

Chain of rat LEPR extracellular domain expressed with a C-terminal myc-myc-hexahistidine tag (rLEPR.mmh) (Q62959 other isoform, or with tags, fused parts or gaps): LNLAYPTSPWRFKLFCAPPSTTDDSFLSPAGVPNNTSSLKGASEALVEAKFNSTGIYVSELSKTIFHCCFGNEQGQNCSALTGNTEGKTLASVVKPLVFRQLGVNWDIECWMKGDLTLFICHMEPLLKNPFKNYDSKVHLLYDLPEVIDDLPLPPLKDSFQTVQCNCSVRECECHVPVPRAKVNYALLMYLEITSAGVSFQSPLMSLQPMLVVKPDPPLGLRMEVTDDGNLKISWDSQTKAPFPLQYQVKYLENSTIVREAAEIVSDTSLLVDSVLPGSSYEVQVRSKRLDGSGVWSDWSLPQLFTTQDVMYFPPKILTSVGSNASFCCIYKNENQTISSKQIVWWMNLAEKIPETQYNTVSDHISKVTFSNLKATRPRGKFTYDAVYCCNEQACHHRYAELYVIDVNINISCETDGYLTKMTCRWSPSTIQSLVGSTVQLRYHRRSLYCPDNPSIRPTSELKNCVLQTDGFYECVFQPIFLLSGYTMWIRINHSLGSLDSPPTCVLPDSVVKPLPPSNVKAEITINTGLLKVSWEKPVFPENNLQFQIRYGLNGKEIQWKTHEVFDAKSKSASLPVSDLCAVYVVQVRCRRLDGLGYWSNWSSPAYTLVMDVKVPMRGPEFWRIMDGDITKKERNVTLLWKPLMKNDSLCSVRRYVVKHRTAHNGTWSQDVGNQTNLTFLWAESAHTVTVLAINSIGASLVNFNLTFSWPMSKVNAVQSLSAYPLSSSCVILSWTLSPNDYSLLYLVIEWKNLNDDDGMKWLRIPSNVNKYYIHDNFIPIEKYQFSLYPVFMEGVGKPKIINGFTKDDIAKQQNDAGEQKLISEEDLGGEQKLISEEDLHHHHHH

In the first assay the target is T2, human LEPR extracellular domain expressed with a C-terminal myc-myc-hexahistidine tag (hLEPR.mmh) (human, UniProt P48357 22-839).
T2 construct: also called human LEPR-MMH; monomeric human LEPR
In words: Luminex, myc-captured full length extracellular domain. The method, then:
Aliquots of microspheres with immobilized anti-myc monoclonal antibodies, prepared as described above, were added individually to 1 mL of the each of these protein supernatants. The microspheres were gently mixed, incubated for two hours at 25° C., washed twice with 1 mL of DBPS, centrifuged to remove the supernatant and finally resuspended in 1 mL of DPBS buffer. Forty-eight μL of anti-myc IgG coupled microspheres from individual reactions with full length human LEPR and with each of the human LEPR domain proteins were withdrawn and mixed together in 3.6 mL of PBS+20 mg/mL BSA+0.05% sodium azide (blocking buffer).
From this mixed pool, 75 μL of microspheres were plated per well on a 96 well filter plate (Millipore, Cat. No: MSBVN1250) and mixed with 25 μL of individual anti-human LEPR monoclonal antibodies (0.5 or 5 µg/mL), incubated for two hours at 25° C. and then washed twice with 200 μL of DPBS with 0.05% Tween 20 (washing buffer). […] After 30 minutes, the samples were washed twice with 200 μL of washing buffer and resuspended in 150 μL of wash buffer. The Median Fluorescence intensity (MFI) of the microspheres was measured in a Luminex Analyzer.
For B1, the MFI worked out at 4700 MFI.
Still for that read-out and setting: then B2, with 3300 MFI; and B3, with 10500 MFI.

The next assay has as its target rat LEPR extracellular domain expressed with a C-terminal myc-myc-hexahistidine tag (rLEPR.mmh) (rat, UniProt Q62959 22-839). In words: SPR, captured mAb, 25C and 37C.
Turning to B1, the binding result is on record as “no binding”.
Same read-out and setting: for B2 the value was “no binding”; for B3, “no binding”.

A further assay deals with mouse LEPR extracellular domain expressed with a C-terminal myc-myc-hexahistidine tag (mLEPR.mmh) (mouse, UniProt P48356 22-839). The assay is described as follows: SPR, captured mAb, 25C and 37C.
Chain of mouse LEPR extracellular domain expressed with a C-terminal myc-myc-hexahistidine tag (mLEPR.mmh) (P48356 other isoform, or with tags, fused parts or gaps): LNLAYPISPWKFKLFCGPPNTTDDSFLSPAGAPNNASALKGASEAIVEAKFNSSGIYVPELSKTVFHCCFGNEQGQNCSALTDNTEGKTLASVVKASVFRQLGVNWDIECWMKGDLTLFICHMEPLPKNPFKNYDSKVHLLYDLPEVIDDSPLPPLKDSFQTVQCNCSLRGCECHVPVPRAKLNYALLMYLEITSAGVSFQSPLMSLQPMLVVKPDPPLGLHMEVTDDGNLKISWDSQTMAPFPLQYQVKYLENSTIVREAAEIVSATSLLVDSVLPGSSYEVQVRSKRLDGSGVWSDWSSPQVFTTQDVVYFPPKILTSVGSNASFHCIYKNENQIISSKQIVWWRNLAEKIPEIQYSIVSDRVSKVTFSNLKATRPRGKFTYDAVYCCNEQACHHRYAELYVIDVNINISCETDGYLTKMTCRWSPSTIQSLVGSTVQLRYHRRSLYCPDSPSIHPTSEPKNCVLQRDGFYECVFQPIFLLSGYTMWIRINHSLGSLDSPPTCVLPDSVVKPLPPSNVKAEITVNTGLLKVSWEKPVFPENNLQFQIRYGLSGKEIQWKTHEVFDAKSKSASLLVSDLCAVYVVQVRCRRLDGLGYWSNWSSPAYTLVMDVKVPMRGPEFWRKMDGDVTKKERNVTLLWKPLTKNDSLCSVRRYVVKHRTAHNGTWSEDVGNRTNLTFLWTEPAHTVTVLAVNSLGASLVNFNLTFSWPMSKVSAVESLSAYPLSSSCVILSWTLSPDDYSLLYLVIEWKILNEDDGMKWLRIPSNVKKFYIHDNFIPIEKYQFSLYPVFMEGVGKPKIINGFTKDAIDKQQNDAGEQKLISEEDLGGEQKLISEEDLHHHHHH
Take B1: the binding result is recorded as “no binding”.
On the same count and under the same terms, for B2 the value was “no binding”; for B3, “no binding”.

For a further assay, the target named is T3, extracellular domain portion of LEPR protein expressed with a C-terminal human Fc tag (hLEPR.hFc) (human).
T3 construct: also called dimeric human LEPR
In words: blocking ELISA: 10 nM hLEPR.hFc to coated hLeptin, 500 nM Ab. The method, then:
These antibody-protein or protein-protein complexes were then incubated for 1.5 hour at room temperature (RT). […] Samples were developed with a TMB solution (BD Biosciences, #555214; substrate A and B mixed at 1:1 ratio as per manufacturer's instructions) to produce a colorimetric reaction and then neutralized with 1M sulfuric acid before measuring absorbance at 450 nm on a Victor X5 plate reader.
Data analysis was performed using a sigmoidal dose-response model within Prism™ software (GraphPad). […] In the calculation, binding signal of 10 nM of hLEPR.hFc without the presence of the antibody was referenced as 100% binding or 0% blocking; and the baseline signal of buffer alone without the presence of hLEPR.hFc was referenced as 0% binding or 100% blocking.
With B1, the “% blockade” value amounted to 6%.
On to B2, for which the “% blockade” value is 9%.
On the same count and under the same terms, for B3 the value was -5%.

Another assay addresses T4, Macaca fascicularis LEPR extracellular domain expressed with a C-terminal myc-myc-hexahistidine tag … (Macaca fascicularis, UniProt Q9MYL0 22-837 (rhesus entry)).
T4 construct: also called mfLEP.MMH
In words: SPR, captured mAb, 37C. The method, then:
(§1) Equilibrium dissociation constants (KD values) for LEPR binding to purified anti-LEPR monoclonal antibodies were determined using a real-time surface plasmon resonance biosensor using a Biacore 4000 instrument. All binding studies were performed in 10 mM HEPES, 150 mM NaCl, 3 mM EDTA, and 0.05% v/v Surfactant Tween-20, pH 7.4 (HBS-ET) running buffer at 25° C. and 37° C. The Biacore sensor surface was first derivatized by amine coupling with a monoclonal mouse anti-human Fc antibody (GE, #BR-1008-39) to capture anti-LEPR monoclonal antibodies. […] Kinetic association (kₐ) and dissociation (kd) rate constants were determined by fitting the real-time binding sensorgrams to a 1:1 binding model with mass transport limitation using Scrubber 2.0c curve-fitting software. Binding dissociation equilibrium constants (KD) and dissociative half-lives (t½) were calculated from the kinetic rate constants as: […]
B1: the “100 nM mfLEPR.MMH Bound (RU)” value was 143 RU, the Kd amounted to 5.18 nM, the koff came out at 0.000257 s⁻¹ and the kon came out at 49700 M⁻¹ s⁻¹. Besides, the t½ is 45 min.
In the same order, the values of B2 are 113 RU, 60.1 nM, 0.00324 s⁻¹, 53900 M⁻¹ s⁻¹ and 3.6 min.
In the same order, the values of B3 are 30 RU, 140 nM, 0.00354 s⁻¹, 25300 M⁻¹ s⁻¹ and 3.3 min.

The target in another assay is T1, human LEPR extracellular domain …. The assay is described as follows: SPR, captured mAb, 37C. The protocol: as §1
Regarding B1, the “100 nM hLEPR-mFc Bound (RU)” value came to 110 RU, the Kd amounted to 3.15 nM, the off-rate constant (koff) turned out to be 0.000174 s⁻¹ and the kon turned out to be 55300 M⁻¹ s⁻¹. The t½ turned out to be 66 min.
With B2, the “100 nM hLEPR-mFc Bound (RU)” value is 100 RU, the Kd is 7.66 nM, the dissociation rate constant (koff) worked out at 0.000652 s⁻¹ and the on-rate constant (kon) turned out to be 85100 M⁻¹ s⁻¹. This molecule also returned a t½ of 18 min.
In the same order, the values of B3 are 34 RU, 12.8 nM, 0.000548 s⁻¹, 42700 M⁻¹ s⁻¹ and 21 min.

For a further assay, the target named is T2, human LEPR extracellular domain …. In words: SPR, captured mAb, 37C. The protocol:
as §1
In the case of B1, the “100 nM hLEPR-MMH Bound (RU)” value was determined as 61 RU, binding was characterised by a dissociation constant (Kd) of 14.8 nM, the koff is 0.000438 s⁻¹ and the kon was 29500 M⁻¹ s⁻¹. Besides, the t½ amounted to 26 min.
The corresponding values for B2 are 44 RU, 96.3 nM, 0.00341 s⁻¹, 35400 M⁻¹ s⁻¹ and 3.4 min.
In the same order, the values of B3 are 21 RU, 121 nM, 0.00256 s⁻¹, 21200 M⁻¹ s⁻¹ and 4.5 min.
